From the supplement of paper PMC9112550, “Optimization of the antimicrobial peptide Bac7 by deep mutational scanning” (BMC Biology, 2022)

Test system: Escherichia coli TOP10
Experiment: shrunken log2 fold change of peptide-encoding DNA abundance (4.5 h post-induction vs induction); higher = less antimicrobial activity (less host growth inhibition)
Details: time post-induction: 4.5 h; library: site-saturation at positions 5, 18, 19, 20
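Further: peptides expressed intracellularly from a pBAD plasmid library in pooled LB shake-flask culture, induced with 0.3% L-arabinose, DNA abundance read by NGS, three biological replicates, DESeq2 with apeglm shrinkage.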

Sequence	shrunken log2 fold change
RRIRVRPPRLPRPRPRPHTGPRP	-0.495
RRIRMRPPRLPRPRPRPQSPPRP	0.213
RRIRDRPPRLPRPRPRPLTKPRP	0.0084
RRIRERPPRLPRPRPRPRYFPRP	-0.54
RRIRKRPPRLPRPRPRPSYYPRP	-0.983
RRIRVRPPRLPRPRPRPFVAPRP	-0.118
RRIRCRPPRLPRPRPRPCQFPRP	-0.0777
RRIRIRPPRLPRPRPRPKVGPRP	0.164
RRIRGRPPRLPRPRPRPLVQPRP	0.802
RRIRPRPPRLPRPRPRPVICPRP	0.0853
RRIRERPPRLPRPRPRPQKCPRP	-0.202
RRIRVRPPRLPRPRPRPEGIPRP	-0.0615
RRIRERPPRLPRPRPRPGRHPRP	-0.0636
RRIRPRPPRLPRPRPRPNWCPRP	0.0235
RRIRERPPRLPRPRPRPSQEPRP	-0.0844
RRIRFRPPRLPRPRPRPCLEPRP	-0.489
RRIRLRPPRLPRPRPRPYFSPRP	-0.39
RRIRVRPPRLPRPRPRPCGTPRP	-0.317
RRIRTRPPRLPRPRPRPSFIPRP	-0.761
RRIRFRPPRLPRPRPRPVVAPRP	0.0597
RRIRLRPPRLPRPRPRPFGGPRP	-0.334

Sequence	shrunken log2 fold change
RRIRPRPPRLPRPRPRPPNCPRP	0.215
RRIRARPPRLPRPRPRPPNYPRP	-0.0985
RRIRERPPRLPRPRPRPRWCPRP	0.0485
RRIRWRPPRLPRPRPRPAPAPRP	1.38
RRIRPRPPRLPRPRPRPSYNPRP	-0.671
RRIRHRPPRLPRPRPRPGECPRP	-0.377
RRIRSRPPRLPRPRPRPKALPRP	0.175
RRIRTRPPRLPRPRPRPPFDPRP	0.104
RRIRARPPRLPRPRPRPFAQPRP	0.213
RRIRMRPPRLPRPRPRPRRSPRP	0.438
RRIRHRPPRLPRPRPRPWPMPRP	0.0159
RRIRLRPPRLPRPRPRPSHNPRP	-0.735
RRIRKRPPRLPRPRPRPMRWPRP	1.41
RRIRCRPPRLPRPRPRPHRYPRP	-0.114
RRIRERPPRLPRPRPRPFHGPRP	-0.0459
RRIRPRPPRLPRPRPRPNFYPRP	0.356
RRIRLRPPRLPRPRPRPTKKPRP	0.12
RRIRGRPPRLPRPRPRPDIMPRP	0.0438
RRIRFRPPRLPRPRPRPQNMPRP	-0.797
RRIRKRPPRLPRPRPRPHRVPRP	0.34
RRIRSRPPRLPRPRPRPNVVPRP	-0.0558

Sequence	shrunken log2 fold change
RRIRFRPPRLPRPRPRPNRAPRP	0.091
RRIRSRPPRLPRPRPRPCPYPRP	0.0125
RRIRWRPPRLPRPRPRPAKQPRP	0.0759
RRIRCRPPRLPRPRPRPRIIPRP	-0.443
RRIRLRPPRLPRPRPRPRFPPRP	-0.0246
RRIRQRPPRLPRPRPRPTSAPRP	0.257
RRIRVRPPRLPRPRPRPIVKPRP	-0.0955
RRIRQRPPRLPRPRPRPDWGPRP	-0.0197
RRIRTRPPRLPRPRPRPQRQPRP	0.455
RRIRDRPPRLPRPRPRPFHDPRP	-0.157
RRIRHRPPRLPRPRPRPQIQPRP	-0.0515
RRIRCRPPRLPRPRPRPDKDPRP	-0.0474
RRIRTRPPRLPRPRPRPTLLPRP	0.0818
RRIRSRPPRLPRPRPRPGQVPRP	-0.0247
RRIRPRPPRLPRPRPRPATMPRP	0.0647
RRIRSRPPRLPRPRPRPWMCPRP	-0.391
RRIRARPPRLPRPRPRPDLRPRP	0.0309
RRIRQRPPRLPRPRPRPQPQPRP	0.0436
RRIRDRPPRLPRPRPRPTCWPRP	1.09
RRIRKRPPRLPRPRPRPGPLPRP	0.578
